Test results published in patent publication US20240352121A1, “LAIR-1 AGONISTIC ANTIBODIES AND METHODS OF USE THEREOF” (NEXTCURE, INC., priority 2023, published 2024).

Tests used:
[1] = test system: LSCs within the bone-marrow of PDX donor animals; experiment: PDX secondary transplant model; format: in vivo, NSG-SGM3 mice; settings: bone-marrow from PDX donors treated for 4 weeks; no further treatment
Method: Newborn (3-5 day from birth) NSG-SGM3 pups were sub-lethally (200 cGy) irradiated. 12 hours post-irradiation, mice were intra-hepatically transplanted with 0.2e6 AML bone-marrow cells or normal CD34 HSCs from cryopreserved stocks. 6 weeks post-transplant, blood was collected to assess engraftment of progenitor cells via flow cytometry, staining for human CD45, human CD33, and human CD3. Once engraftment of human cells was confirmed, 5 mg/kg of anti-human LAIR-1 mAb or isotype control was intraperitoneally injected weekly for a total of 4 doses. At the indicated timepoints post-treatment, blood was collected to assess the proliferation of AML cells as a measure of LAIR-1 mAb anti-leukemic activity as compared to isotype control. For standard-of-care combination studies, PDX mice were treated with 20 mg/kg venetoclax 5 days on and 2 days off for 5 weeks, and X 1.5 mg/kf-tiw azacytidine upfront one week only. LAIR-1 mAb was treated i.p. once per week for 5 weeks. Blood was harvested as described above to measure leukemic growth and spleens were harvested at endpoint and weighed for assessment of splenomegaly. For secondary transplant studies, mice were engrafted as above. […] Leukemia progression in recipient mice was measured by flow cytometry by quantifying the percent of human CD33^+ human CD45^+ cells in peripheral blood at weeks 4, 6, and 10 weeks post-transplant.

[2] = test system: healthy T cells or NK cells; experiment: Ex vivo killing of T cells or NK cells of a VEN/AZA-treated AML patient; format: cell-based, human; settings: same patient sample
Method: (§1) Ex vivo killing of VEN/AZA-treated AML patient leukemic cells (FIG. 7A) or T cells or NK cells (FIG. 7B). Values normalized to vehicle control. Lines represent linear regression of NC525 concentration versus normalized cell killing. […] FIGS. 7D and 7E show in vivo leukemic growth as measured by whole-body luminescence of MV4-11-luciferase cells (FIG. 7D) or survival (FIG. 7E) of CDX mice treated with 10 mg/kg isotype control (gray) or NC525 (red) or 100 mg/kg VEN (pink) or 0.5 mg/kg AZA (blue) or combination therapy (green or yellow, respectively). BLoD, below limit of detection. n=9 mice per group. P values determined by 2-way ANOVA or log-rank (Mantel-Cox) test, respectively. FIGS. 7F and 7G show leukemic growth in the blood (FIG. 7F) and in the spleen and BM (FIG. 7G) at week 8 after transplant of AML PDX mice treated with vehicle (gray), VEN/AZA (blue), NC525 (red), or VEN/AZA plus NC525 (green). n=5-10 mice per group. AML cells in spleen and BM compared from 4-5 mice per group. Data are shown as the mean±SEM. P values determined by 2-way ANOVA or 1-way ANOVA with multiple comparisons.

[3] = test system: MV4-11-LAIR-1 Overexpressing cells; experiment: In vitro culture of MV4-11-LAIR-1 overexpressing cells with or without anti-IgG crosslinking; format: cell-based, human
Method: FIGS. 4A-4O show the collagen matrix is vital to LAIR-1 induced AML cell death. (FIGS. 4A-C). Flow cytometry quantification of primary live, dead, or apoptotic total blood leukocytes after ex vivo treatment with 10 μg/mL IgG isotype control (gray) or LAIR-1 mAb (red) in the presence (FIG. 4A) or absence (FIG. 4B) of exogenous collagen, or (FIG. 4C), CD451^Lo SSC^Lo blast cells in the presence of isotype control or LAIR-1 mAb. N=3 technical replicates. […] Each dot represents an individual donor. Red shading highlights surface expression >20000 arbitrary units. Blue shading highlights expression <20000 units. Line represents simple linear regression. […] N=4-7 donors. […] Mean pixel density from Western blotting normalized to isotype control condition and graphed relative to total SHP-1. N=3 technical replicates. FIGS. 4G and 4H show mean pixel density from phospho-array of AML patient PBMCs treated ex vivo with 10 μg/mL of IgG isotype control (gray), 50 μg/mL coated collagen (white), or 10 μg/mL LAIR-1 mAb+coated collagen (red) for G, MAPK activity or (FIG. 4H), mTOR and NF-kB activity. N=2 technical replicates. […] FIGS. 4M and 4N) 4E-BP1 expression as measured by Lumit assay (FIG. 4M) or cleaved caspase-7 as measured by Western blot (FIG. 4N) of cells treated as shown in FIGS. 4I-4K. Mean pixel density normalized to histone-3 for triplicate samples. […] Values normalized to isotype for each respective condition. n=3-4 technical replicates. P values calculated by Student's t test. Error bars represent SEM.

[4] = test system: healthy human primary immune cells; experiment: Effect on healthy human immune cells in mice reconstituted with human CD34 cells; format: in vivo, NSG-SGM3 mice
Method: NSG-SGM3 mice were purchased from Jackson Laboratory. Mice were engrafted with CD34+ cord blood cells donor #2523. Mice treated weekly beginning 18 weeks after engraftment with anti-human LAIR-1 mAb clone 11B3 in human G1 or G4P format, or control at 100 μg/mouse (5 mg/kg) for 4 weeks. Bleed at weeks 2 (1 day prior to 2nd dose) and 4 (one day prior to 4th dose) for circulating immune cells. Mice were sacrificed 1 week after final dose for analysis of spleen, LN and bone marrow. FIGS. 35A-35B show total body weight and survival of NSG-SGM3 mice reconstituted with human CD34+ cord blood cells and treated 11B3 antibodies. FIGS. 35C-35G show time-course follow-up of the changes in the immune cell numbers in the blood collected from NSG-SGM3 reconstituted with human CD34+ cord blood cells. FIGS. 35H-35I show Analysis of immune cell numbers in the spleen and bone marrow collected from NSG-SGM3 reconstituted with human CD34+ cord blood cells.
For assessment of mAb impacts on normal human immune cells, NSG-SGM3-CD34^+ fully engrafted humanized mice (>25% human CD45+ leukocytes in circulation) were purchased from Jackson Laboratory (stock #2523, Bar Harbor, ME). […] Absolute numbers of cell subpopulations were calculated, as well as percentages of each population subset as a percentage of total CD45^+ cells and total leukocyte gate.

SoC-resistant AML = experiment: PDX model with BM from a VEN/AZA-resistant patient; design: species or system NSG-SGM3 mice; settings: mouse, in vivo
Method: as §1
Newborn (3-5 day from birth) NSG-SGM3 pups were sub-lethally (200 cGy) irradiated. […] Leukemia progression in recipient mice was measured by flow cytometry by quantifying the percent of human CD33^+ human CD45^+ cells in peripheral blood at weeks 4, 6, and 10 weeks post-transplant.

B1: LAIR-1 mAb: humanized agonist anti-LAIR-1 mAb, IgG1 backbone; h11B3 VL-2 (SEQ ID NO: 16), h11B3 VH-3 (SEQ ID NO: 27) (antibody, V domains shown)
VH: EVQLVESGGGLVQPGGSLKLSCAASGFTFNTNAMYWVRQAPGKGLEWVGRIRSKSSNYATYYAASVKGRFTISRDDSKNTLYLQMNSLKTEDTAVYYCVRGGSGFFAYWGQGTLVTVSS
VL: DIQMTQSPSSLSASLGDRVTITCKASEDIYIRLAWYQQKPGKAPRLLISTATSLETGVPSRFSGSGSGTDYTFTISSLQPEDIATYYCQQYWSTPYTFGGGTRLEIK
modifications: IgG1 constant regions; Synthetic: h11B3 VH-3; Synthetic: h11B3 VL-2
disease development in secondary recipient mice [1]: developed no disease | impact on healthy T cells or NK cells [2]: no impact | growth of LAIR-1 Overexpressing cells ([3]; LAIR-1 mAb alone, vs isotype control): only moderately suppressed | proliferation of cells ([3]; anti-IgG crosslinking conditions, after 3 days of culture): completely inhibited | 4E-BP1 (mTORC1 target protein) ([3]; crosslinking conditions): significant suppression | activated caspase-7 ([3]; crosslinking conditions): substantial increase | depletion, inhibition, or expansion of healthy human primary immune cells ([4]; 100 μg/mouse (5 mg/kg) weekly for 4 weeks): no depletion, inhibition, or expansion | effects on healthy immune cells in the spleen or the bone-marrow ([4]; NSG mice reconstituted with healthy human CD34 stem cells): minimal effects | AML disease (circulating blast cell burden, AML cells in spleen and BM) (SoC-resistant AML): significantly reduced
